Laboratory results: patent publication US20260209761, “RNA-GUIDED ENDONUCLEASE SYSTEM AND USE THEREOF IN GENE EDITING” (HARBIN INSTITUTE OF TECHNOLOGY, published 2026)

Biological target: T1, FbRAD1/ISFba1 (RHS75625.1) (Firmicutes bacterium AM43-11BH)
T1 chain: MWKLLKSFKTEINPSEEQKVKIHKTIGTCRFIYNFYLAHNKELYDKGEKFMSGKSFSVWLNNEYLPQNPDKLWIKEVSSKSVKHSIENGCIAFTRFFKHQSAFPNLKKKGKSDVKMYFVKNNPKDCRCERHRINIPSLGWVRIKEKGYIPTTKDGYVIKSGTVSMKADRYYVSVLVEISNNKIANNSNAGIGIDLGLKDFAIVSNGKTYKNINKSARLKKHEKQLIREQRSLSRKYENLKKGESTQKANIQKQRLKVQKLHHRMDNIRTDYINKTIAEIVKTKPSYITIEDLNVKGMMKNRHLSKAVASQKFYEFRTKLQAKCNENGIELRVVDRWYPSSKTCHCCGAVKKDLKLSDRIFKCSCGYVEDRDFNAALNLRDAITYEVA
Assay: co-purified RNA, degraded by RNase not DNase; about 180 nt; RNA-seq
Conditions: tags: GST (cleaved by PreScission), C-terminal 6His per expression cassette; stem loop, long hairpin with inner loop and pseudoknot (predicted)

B1: FbRAD1 RAGATH-18-associated RNA (ssRNA)
RNA: CUAAAACGCAAACGUAAGUAUGUACCGAAGGCUAUUUUCGGGAAUUUACGACUAUGGAGUGUACAAGAACUUGUGAGUAGAUAUGAUUUCGGUCAAUCCAAAGCAUACACGAUGAAAUAGUAAGUAAUGUUCGUGAGAACUUACAUUAUCUCGAUGUGAGCAUAUUUAAUCACAUUUUGAGUGGCAG
- binding result: binds
